Here are results for 28 substances from US7056679B2, “Target specific screening and its use for identifying target binders” (Antyra, Inc., priority 2001, dated 2006).

The target of one experiment is T1, DGI-2 (Homo sapiens, UniProt Q15004).
T1 construct: encompassed the entire DGI-2 open reading frame (ORF); His-tag of vector pIVEX2.3-MCS (inferred from the vector and from the reverse primer lacking a stop codon); made in house; host or cells: cell-free in vitro translation (Rapid Translation System RTS, Roche; E. coli lysate)
T1 sequence (Q15004 1-111): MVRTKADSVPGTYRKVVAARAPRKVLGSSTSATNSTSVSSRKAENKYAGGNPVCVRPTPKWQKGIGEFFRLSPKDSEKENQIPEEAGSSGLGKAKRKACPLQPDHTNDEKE
Nature of the experiment: ELISA analysis of phage on DGI-2 polypeptide (specific binding). Particulars: for DGI-2 (OD): binding to DGI-2 polypeptide (specific binding), phage ELISA units read at 405 nm; for DGI-2/LDH (OD): ratio of specific binding to non-specific binding. How it is done:
To verify that the selected target binders bound to DGI-2, Elisa assays were performed with recombinant DGI-2. DGI-2 was subcloned and expressed using conventional methods as described below.
Protein yields were satisfactory, but most of protein was found in inclusion bodies. Next, DGI-2 was expressed using an in vitro translation system (Rapid Translation System RTS 5000, Roche Diagnostics GmbH, Mannheim Germany). For this system, the DGI-2 ORF was cloned into the pIVEX2.3-MCS vector (Roche Diagnostics) using restriction sites Nde I and Hind III, which were added to DGI-2 by PCR. […] The primers used for the PCR amplification were as follows: […]
(§1) For analysis of individual target binders, colonies were picked and phage prepared as described above using helper phage, M13KO7. Ninety-six-well microtiter plates were coated with 500 ng/well of specific target protein, 500 ng/well lactate dehydrogenase (LDH) irrelevant or non-specific target, 500 ng/well of positive control antibody raised against ETAG, and negative control of non-fat milk powder-PBS 2% at 4° C. overnight. Plates were then blocked with 350 microliters/well PBS containing 2% non-fat milk for 1 hr at room temperature. One hundred microliters per well of phage from isolated clones were added and plates were incubated at room temperature for 2 hr after centrifuging samples for 20 minutes at 3500 rpm at 4° C. The phage solution was then removed, and the wells were washed three times with PBS at room temperature. Antibody raised against M13 conjugated to horseradish peroxidase (Pharmacia) was diluted 1:3000 in PBS-Tween and added to each well (100 μl/well). Incubation was for 1 hr at room temperature, followed by washing with PBS-(0.5%) Tween 3 times as described. Color was developed by addition of ABTS solution (100 μl/well; Boehringer, Indianapolis, Ind.). Plates were analyzed at 405 nm. A clone was considered “positive” if the A405 of the well was ≧2-fold over background.

Experiment [1] deals with lactate dehydrogenase (LDH). Nature of the experiment: ELISA analysis of phage on LDH (irrelevant, non-specific target). Particulars: peptide binding to LDH polypeptide (non-specific binding); phage ELISA units read at 405 nm. The experiment is classed as binding. How it is done:
as §1
(In general: ELISA stands for enzyme-linked immunosorbent assay.)

A further experiment relates to E-tag antibody. Put plainly: ELISA analysis of phage on antibody raised against ETAG (positive control). To be noted: peptide binding to E-tag antibody; phage ELISA units read at 405 nm. How it is done:
as §1

Turning to “SSVWATWGSDLRTFGSVGFL (DGI-2-20F-PP-C7; listed as Escherichia coli)”, in the experiment with DGI-2, the “DGI-2 (OD)” value came out at 3.0 OD and the “DGI-2/LDH (OD)” value was 2.6. Besides, the “LDH (OD)” value in experiment [1] is listed as 1.1 OD. The “ETAG (OD)” value in the experiment with E-tag antibody came out at 11.0 OD.
As for “MSTLQGPGHLFQMLRRASLG (DGI-2-20R-4-H12; listed as Escherichia coli)”, in the experiment with DGI-2, the “DGI-2 (OD)” value is reported as 3.7 OD and the “DGI-2/LDH (OD)” value turned out to be 2.8. Besides, in experiment [1], the “LDH (OD)” value was 1.3 OD. The “ETAG (OD)” value in the experiment on E-tag antibody came out at 10.9 OD.
For “DGRGWGAMWMRWAEGLGADI (DGI-2-20R-4-G114; listed as Escherichia coli)”, in that order: 12.9 OD, 11.0, 1.2 OD and 16.5 OD.
The matching figures for “RVSYEMLGRRRRSMHGSSMR (DGI-2-20F-PP-A4; listed as Escherichia coli)”: 2.7 OD, 2.6, 1.1 OD and 6.6 OD.
The matching figures for “YGTAGLFLRRACTMSDPGDPLGRRGYTGWGVLWDEWVTGS (DGI-2-40F-3-C8; listed as Escherichia coli)”: 5.7 OD, 6.0, 0.9 OD and 13.6 OD.
On to “RRTQPAYRSGADDRTSGFYCYVTSALSAGAWMPFLPRRLA (DGI-2-40F-3-A12; listed as Escherichia coli)”, for which, in the experiment with DGI-2, the “DGI-2 (OD)” value amounted to 0.9 OD and the “DGI-2/LDH (OD)” value worked out at 1.1. In addition, the “LDH (OD)” value in experiment [1] was found to be 0.8 OD. For the same substance, the “ETAG (OD)” value with E-tag antibody is reported as 4.6 OD.
For “RCFQDGRMLALSPTYLIRRSVSPLVVGPLPTP (DGI-2-40F-3-A24; listed as Escherichia coli)”, in that order: 1.3 OD, 1.4, 0.9 OD and 11.7 OD.
The matching figures for “GHGAGDWAAELFVCPVAFLTGFAWR (DGI-2-20R-4-H2; listed as Escherichia coli)”: 9.9 OD, 9.2, 1.1 OD and 12.9 OD.
The matching figures for “FGSTAYADMLSQFRKFAMNIS (DGI-2-20F-PP-E1; listed as Escherichia coli)”: 1.8 OD, 1.9, 1.0 OD and 33.4 OD.
Turning to “LGPAHPHGRVCRVSSS#S (LGPAHPHGRVCRVSSSS; DGI-2-20F-PP-B9; listed as Escherichia coli)”, in the experiment with DGI-2, the “DGI-2 (OD)” value is reported as 1.9 OD and the “DGI-2/LDH (OD)” value stood at 2.7. Also, the “LDH (OD)” value in experiment [1] is recorded as 0.7 OD. The “ETAG (OD)” value in the experiment on E-tag antibody was 5.0 OD.
For “RDTTSQWSWISRGWEFPGWR (DGI-2-20R-3-C2; listed as Escherichia coli)”, in that order: 6.2 OD, 5.8, 1.1 OD and 11.9 OD.
The matching figures for “RFWSVSYQGGRVMCREWGYCLPI (DGI-2-40F-3-C92; listed as Escherichia coli)”: 2.1 OD, 2.6, 0.8 OD and 9.8 OD.
For “LSHPMSPLRAASQMALTQGV (DGI-2-20R-4-H7; listed as Escherichia coli)”, in that order: 3.1 OD, 2.6, 1.2 OD and 14.1 OD.
For “RMYNCHYIERLYDWHAGRJLLQDPA (RMYNCHYIERLYDWHAGRILLQDPA; not fully specified; non-natural residue J; DGI-2-20C-4-E926; listed as Escherichia coli)”, in the experiment with DGI-2, the “DGI-2 (OD)” value is given as 2.9 OD and the “DGI-2/LDH (OD)” value stood at 3.0. For the same substance, in experiment [1], the “LDH (OD)” value is given as 1.0 OD. Besides, the “ETAG (OD)” value in the experiment on E-tag antibody is listed as 17.4 OD.
The matching figures for “QGSAHVVRPPGVYDVPWKVGMFFHPQNWPNSWGRAYFRSG (DGI-2-40F-3-D12; listed as Escherichia coli)”: 2.3 OD, 2.5, 1.0 OD and 7.3 OD.
For “MGQGFHYNRQPYMSHQCYAFTFSTPFLDGDRIPHGVSRGL (DGI-2-40F-3-D1; listed as Escherichia coli)”, in that order: 0.8 OD, 1.0, 0.8 OD and 4.1 OD.
Consider “SRGMAEAQFSAWPVLAVFPL (DGI-2-20F-PP-H8; listed as Escherichia coli)”, for which, in the experiment with DGI-2, the “DGI-2 (OD)” value worked out at 1.6 OD and the “DGI-2/LDH (OD)” value was found to be 1.9. Also, the “LDH (OD)” value in experiment [1] is 0.9 OD. Further, the “ETAG (OD)” value in the experiment with E-tag antibody amounted to 32.4 OD.
For “DRHRAFVAEGLDGFRHSTGV (DGI-2-20F-PP-D4; listed as Escherichia coli)”, in that order: 2.6 OD, 2.3, 1.1 OD and 44.0 OD.
Turning to “GLYQRGLAPRCRGERFGVRN (DGI-2-20F-PP-C2; listed as Escherichia coli)”, in the experiment with DGI-2, the “DGI-2 (OD)” value turned out to be 2.7 OD and the “DGI-2/LDH (OD)” value worked out at 2.5. Besides, the “LDH (OD)” value in experiment [1] was found to be 1.1 OD. Moreover, the “ETAG (OD)” value with E-tag antibody was 6.0 OD.
The matching figures for “SLECWAMPGMVVRLVGCDGP (DGI-2-20R-4-H112; listed as Escherichia coli)”: 6.6 OD, 6.0, 1.1 OD and 12.3 OD.
Regarding “ERVSKCVGRGSGRSVGQFGG (DGI-2-20F-PP-F1; listed as Escherichia coli)”, in the experiment with DGI-2, the “DGI-2 (OD)” value worked out at 3.0 OD and the “DGI-2/LDH (OD)” value stood at 3.4. For the same substance, in experiment [1], the “LDH (OD)” value worked out at 0.9 OD. The “ETAG (OD)” value in the experiment on E-tag antibody is 11.1 OD.
For “LSRIWRGVIESAREVESRGI (DGI-2-20F-3-B1; listed as Escherichia coli)”, in that order: 1.2 OD, 1.2, 0.9 OD and 11.4 OD.
For “GEVDCVYALTHRFLSPQVQYHIHRPV (GEVDCVYALTHRFLSPQVQYHHRPV; DGI-2-20C-3-A12; listed as Escherichia coli)”, in that order: 0.9 OD, 1.0, 0.9 OD and 8.1 OD.
The matching figures for “GSVLERGCLEFSGFCFSLGH (DGI-2-20F-3-C1; listed as Escherichia coli)”: 3.4 OD, 3.4, 1.0 OD and 14.0 OD.
Take “LGRTFVWGTCLHLSVSRFGH (DGI-2-20F-PP-C3; listed as Escherichia coli)”: in the experiment with DGI-2, the “DGI-2 (OD)” value is reported as 5.3 OD and the “DGI-2/LDH (OD)” value was 5.1. Moreover, the “LDH (OD)” value in experiment [1] amounted to 1.0 OD. The “ETAG (OD)” value in the experiment with E-tag antibody stood at 39.9 OD.
For “SRELGKWGRLWQDWSSGNFS (DGI-2-20R-3-C11; listed as Escherichia coli)”, in that order: 8.6 OD, 8.3, 1.0 OD and 18.9 OD.
For “VVGYAQGDGLEGGLGSSRDGS (DGI-2-20F-PP-D8; listed as Escherichia coli)”, in that order: 2.3 OD, 2.2, 1.1 OD and 2.6 OD.
The matching figures for “FSSVLGLLDRRGVPVVVGED (DGI-2-20F-3-C3; listed as Escherichia coli)”: 1.1 OD, 1.1, 0.9 OD and 11.6 OD.
